# Results published in patent US20220332824A1 (NANJING GENSCRIPT BIOTECH, published 2022).
# Target: T1, human PD-1 (human, UniProt Q15116 25-288)
# T1 construct: whole, on cells; also called PD-1 antigen
# Test: flow cytometry on CHO-K1 cells expressing PD-1
# Method: For the constructed series of bispecific antibodies, the affinity of these samples with antigens was measured by using a flow cytometer. […] Then, an antibody-antigen binding curve was generated based on the geometric mean, raw data of four parameters was plotted by using the […] Prism V6.02 software, and a best fitted value program was compiled to analyze EC₅₀.
# T1 sequence (Q15116 25-288): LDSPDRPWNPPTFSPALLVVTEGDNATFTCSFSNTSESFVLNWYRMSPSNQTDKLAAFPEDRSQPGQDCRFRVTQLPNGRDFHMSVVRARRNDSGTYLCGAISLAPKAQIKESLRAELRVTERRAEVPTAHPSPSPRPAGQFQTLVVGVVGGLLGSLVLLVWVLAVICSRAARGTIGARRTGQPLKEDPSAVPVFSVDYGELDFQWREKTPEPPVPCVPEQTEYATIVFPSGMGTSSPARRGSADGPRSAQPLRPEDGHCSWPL
row,Binder,binding result
1,"bispecific antibody PD1a-E-LC (bispecific antibody, human IgG4 S228P, kappa, PD1a sdAb fused by the E-linker to the C-terminus of light chain L0; also called L1 + H0) heavy: not shown light: EIVLTQSPATLSLSPGERATLSCRASENVGTYISWYQQKPGQAPRLLIYGASNRYTGIPARFSGSGSGTDFTLTISSLEPEDFAVYYCGESYGHLYTFGGGTKVEIKRTVAAPSVFIFPPSDEQLKSGTASVVCLLNNFYPREAKVQWKVDNALQSGNSQESVTEQDSKDSTYSLSSTLTLSKADYEKHKVYACEVTHQGLSSPVTKSFNRGECEPKSSDKTHTSPPSPEVQLVESGGGLVQPGGSLRLSCAVSGNIYNRNFMGWFRQAPGKGREGVSAIYTGTSRTYYADSVKGRFTISRDNAKNTVYLQMNSLRPEDTAVYYCAADLRDGFWDTGVWNTWGQGTLVTVSS",binds
2,"bispecific antibody PD1b-E-LC (bispecific antibody, human IgG4 S228P, kappa, PD1b sdAb fused by the E-linker to the C-terminus of light chain L0; also called L2 + H0) heavy: not shown light: EIVLTQSPATLSLSPGERATLSCRASENVGTYISWYQQKPGQAPRLLIYGASNRYTGIPARFSGSGSGTDFTLTISSLEPEDFAVYYCGESYGHLYTFGGGTKVEIKRTVAAPSVFIFPPSDEQLKSGTASVVCLLNNFYPREAKVQWKVDNALQSGNSQESVTEQDSKDSTYSLSSTLTLSKADYEKHKVYACEVTHQGLSSPVTKSFNRGECEPKSSDKTHTSPPSPEVQLVESGGGLVQPGGSLRLSCAVSGNIYNRNFMGWFRQAPGKGLEGVSAIYTGTSRTYYADSVKGRFTISRDNSKNTVYLQMNSLRAEDTAVYYCAADLREGFWDTGVWNTWGQGTLVTVSS",binds
3,"bispecific antibody PD1a-E-LN (bispecific antibody, human IgG4 S228P, kappa, PD1a sdAb fused by the E-linker to the N-terminus of light chain L0; also called L3 + H0) heavy: not shown light: EVQLVESGGGLVQPGGSLRLSCAVSGNIYNRNFMGWFRQAPGKGREGVSAIYTGTSRTYYADSVKGRFTISRDNAKNTVYLQMNSLRPEDTAVYYCAADLRDGFWDTGVWNTWGQGTLVTVSSEPKSSDKTHTSPPSPEIVLTQSPATLSLSPGERATLSCRASENVGTYISWYQQKPGQAPRLLIYGASNRYTGIPARFSGSGSGTDFTLTISSLEPEDFAVYYCGESYGHLYTFGGGTKVEIKRTVAAPSVFIFPPSDEQLKSGTASVVCLLNNFYPREAKVQWKVDNALQSGNSQESVTEQDSKDSTYSLSSTLTLSKADYEKHKVYACEVTHQGLSSPVTKSFNRGEC",binds
4,"bispecific antibody PD1b-E-LN (bispecific antibody, human IgG4 S228P, kappa, PD1b sdAb fused by the E-linker to the N-terminus of light chain L0; also called L4 + H0) heavy: not shown light: EVQLVESGGGLVQPGGSLRLSCAVSGNIYNRNFMGWFRQAPGKGLEGVSAIYTGTSRTYYADSVKGRFTISRDNSKNTVYLQMNSLRAEDTAVYYCAADLREGFWDTGVWNTWGQGTLVTVSSEPKSSDKTHTSPPSPEIVLTQSPATLSLSPGERATLSCRASENVGTYISWYQQKPGQAPRLLIYGASNRYTGIPARFSGSGSGTDFTLTISSLEPEDFAVYYCGESYGHLYTFGGGTKVEIKRTVAAPSVFIFPPSDEQLKSGTASVVCLLNNFYPREAKVQWKVDNALQSGNSQESVTEQDSKDSTYSLSSTLTLSKADYEKHKVYACEVTHQGLSSPVTKSFNRGEC",binds
5,"bispecific antibody PD1a-E-HN (bispecific antibody, human IgG4 S228P, kappa, PD1a sdAb fused by the E-linker to the N-terminus of heavy chain H0; also called H3 + L0) heavy: not shown light: EIVLTQSPATLSLSPGERATLSCRASENVGTYISWYQQKPGQAPRLLIYGASNRYTGIPARFSGSGSGTDFTLTISSLEPEDFAVYYCGESYGHLYTFGGGTKVEIKRTVAAPSVFIFPPSDEQLKSGTASVVCLLNNFYPREAKVQWKVDNALQSGNSQESVTEQDSKDSTYSLSSTLTLSKADYEKHKVYACEVTHQGLSSPVTKSFNRGEC",binds
6,"bispecific antibody PD1a-E-HC (bispecific antibody, human IgG4 S228P, kappa, PD1a sdAb fused by the E-linker to the C-terminus of heavy chain H0; also called H1 + L0) heavy: not shown light: EIVLTQSPATLSLSPGERATLSCRASENVGTYISWYQQKPGQAPRLLIYGASNRYTGIPARFSGSGSGTDFTLTISSLEPEDFAVYYCGESYGHLYTFGGGTKVEIKRTVAAPSVFIFPPSDEQLKSGTASVVCLLNNFYPREAKVQWKVDNALQSGNSQESVTEQDSKDSTYSLSSTLTLSKADYEKHKVYACEVTHQGLSSPVTKSFNRGEC",binds

# Results, then the binder that gave them:
row,binding result,Binder
1,binds,"bispecific antibody PD1a-G15-HC (bispecific antibody, human IgG4 S228P, kappa, PD1a sdAb fused by the G15-linker to the C-terminus of heavy chain H0; also called H5 + L0) heavy: not shown light: EIVLTQSPATLSLSPGERATLSCRASENVGTYISWYQQKPGQAPRLLIYGASNRYTGIPARFSGSGSGTDFTLTISSLEPEDFAVYYCGESYGHLYTFGGGTKVEIKRTVAAPSVFIFPPSDEQLKSGTASVVCLLNNFYPREAKVQWKVDNALQSGNSQESVTEQDSKDSTYSLSSTLTLSKADYEKHKVYACEVTHQGLSSPVTKSFNRGEC"
2,binds,"bispecific antibody PD1b-E-HC (bispecific antibody, human IgG4 S228P, kappa, PD1b sdAb fused by the E-linker to the C-terminus of heavy chain H0; also called H2 + L0) heavy: not shown light: EIVLTQSPATLSLSPGERATLSCRASENVGTYISWYQQKPGQAPRLLIYGASNRYTGIPARFSGSGSGTDFTLTISSLEPEDFAVYYCGESYGHLYTFGGGTKVEIKRTVAAPSVFIFPPSDEQLKSGTASVVCLLNNFYPREAKVQWKVDNALQSGNSQESVTEQDSKDSTYSLSSTLTLSKADYEKHKVYACEVTHQGLSSPVTKSFNRGEC"
3,binds,"bispecific antibody PD1b-E-HN (bispecific antibody, human IgG4 S228P, kappa, PD1b sdAb fused by the E-linker to the N-terminus of heavy chain H0; also called H4 + L0) heavy: not shown light: EIVLTQSPATLSLSPGERATLSCRASENVGTYISWYQQKPGQAPRLLIYGASNRYTGIPARFSGSGSGTDFTLTISSLEPEDFAVYYCGESYGHLYTFGGGTKVEIKRTVAAPSVFIFPPSDEQLKSGTASVVCLLNNFYPREAKVQWKVDNALQSGNSQESVTEQDSKDSTYSLSSTLTLSKADYEKHKVYACEVTHQGLSSPVTKSFNRGEC"
